Reference: article PMC4043723

What was measured:
Experiment in all cases: voltammetric sandwich aptasensor
[1] = biological target: horseradish peroxidase (horseradish, UniProt P00433 31-338)
[2] = biological target: prostate-specific antigen (PSA) (UniProt P07288 25-261)
[3] = biological target: thrombin (UniProt P00734;P00734 328-363;364-622)

Measured: binding result

Chain of horseradish peroxidase (P00433 31-338): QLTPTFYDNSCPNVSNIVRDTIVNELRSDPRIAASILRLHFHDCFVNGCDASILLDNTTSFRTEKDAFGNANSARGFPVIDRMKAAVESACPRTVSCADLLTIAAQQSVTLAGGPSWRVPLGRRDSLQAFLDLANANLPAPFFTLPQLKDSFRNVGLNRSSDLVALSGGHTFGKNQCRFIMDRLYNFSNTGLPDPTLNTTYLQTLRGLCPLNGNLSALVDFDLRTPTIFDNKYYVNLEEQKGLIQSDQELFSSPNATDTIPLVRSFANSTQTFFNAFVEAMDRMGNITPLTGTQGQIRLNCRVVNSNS
Chain of prostate-specific antigen (PSA) (P07288 25-261): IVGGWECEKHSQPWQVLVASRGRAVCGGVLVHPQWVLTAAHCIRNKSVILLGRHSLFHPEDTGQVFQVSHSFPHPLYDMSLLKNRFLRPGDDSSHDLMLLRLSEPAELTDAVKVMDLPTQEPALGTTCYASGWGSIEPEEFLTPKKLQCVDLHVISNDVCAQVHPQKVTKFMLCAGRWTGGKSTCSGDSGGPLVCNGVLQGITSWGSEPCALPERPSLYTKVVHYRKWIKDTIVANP

GATTGAAAGGTCTGTTTTTGGGGTTGGTTTGGGTCAATA (ssDNA, 5'-SH-(CH2)6) [anti-rHuEPO aptamer (39-base)]
no binding: all assays above
